Series [1] has as its system HeLa Kyoto. Put plainly: melting temperature (median over replicates), in situ; higher = more thermally stable.
Series [2] relates to HeLa Kyoto. Put plainly: solubility in G1/S (NP-40 vs SDS abundance) (log2 ratio); higher = more soluble. Conditions: cell cycle stage: G1/S.
The subject of series [3] is HeLa Kyoto. Put plainly: thermal stability score vs G1/S (z-score of summed log2 fold changes over temperatures); higher = more thermally stable than in G1/S.
Series [4] relates to HeLa Kyoto. Put plainly: solubility change mitosis vs G1/S (difference of NP-40 vs SDS log2 ratios) (log2 ratio difference); higher = more soluble in mitosis.
[5] abbreviates: cell cycle stage: early G1 (4.5 h after nocodazole release).
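For melting temperature (median over replicates), in situ in this document: HeLa Kyoto cells synchronized by double thymidine or nocodazole block, proteins quantified by TMT10plex mass spectrometry, three independent biological replicates.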
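For solubility change mitosis vs G1/S (difference of NP-40 vs SDS log2 ratios) in this document: synchronized HeLa Kyoto cells (double thymidine block for G1/S, nocodazole release for mitosis), protein amounts in NP-40 versus SDS lysates quantified by mass spectrometry, three biological replicates.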
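For solubility in G1/S (NP-40 vs SDS abundance) in this document: HeLa Kyoto cells arrested at G1/S by double thymidine block, proteins quantified by TMT10plex mass spectrometry in mild NP-40 versus SDS extracts, three biological replicates.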
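For thermal stability score vs G1/S (z-score of summed log2 fold changes over temperatures) in this document: synchronized HeLa Kyoto cells, proteins quantified by TMT10plex mass spectrometry, three biological replicates, mitosis taken 0.5 h after nocodazole release, G1/S directly after double thymidine block.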

On to “MDGKRRPGPGPGVPPKRARGGLWDDDDAPRPSQFEEDLALMEEMEAEHRLQEQEEEELQSVLEGVADGQVPPSAIDPRWLRPTPPALDPQTEPLIFQQLEIDHYVGPAQPVPGGPPPSRGSVPVLRAFGVTDEGFSVCCHIHGFAPYFYTPAPPGFGPEHMGDLQRELNLAISRDSRGGRELTGPAVLAVELCSRESMFGYHGHGPSPFLRITVALPRLVAPARRLLEQGIRVAGLGTPSFAPYEANVDFEIRFMVDTDIVGCNWLELPAGKYALRLKEKATQCQLEADVLWSDVVSHPPEGPWQRIAPLRVLSFDIECAGRKGIFPEPERDPVIQICSLGLRWGEPEPFLRLALTLRPCAPILGAKVQSYEKEEDLLQAWSTFIRIMDPDVITGYNIQNFDLPYLISRAQTLKVQTFPFLGRVAGLCSNIRDSSFQSKQTGRRDTKVVSMVGRVQMDMLQVLLREYKLRSYTLNAVSFHFLGEQKEDVQHSIITDLQNGNDQTRRRLAVYCLKDAYLPLRLLERLMVLVNAVEMARVTGVPLSYLLSRGQQVKVVSQLLRQAMHEGLLMPVVKSEGGEDYTGATVIEPLKGYYDVPIATLDFSSLYPSIMMAHNLCYTTLLRPGTAQKLGLTEDQFIRTPTGDEFVKTSVRKGLLPQILENLLSARKRAKAELAKETDPLRRQVLDGRQLALKVSANSVYGFTGAQVGKLPCLEISQSVTGFGRQMIEKTKQLVESKYTVENGYSTSAKVVYGDTDSVMCRFGVSSVAEAMALGREAADWVSGHFPSPIRLEFEKVYFPYLLISKKRYAGLLFSSRPDAHDRMDCKGLEAVRRDNCPLVANLVTASLRRLLIDRDPEGAVAHAQDVISDLLCNRIDISQLVITKELTRAASDYAGKQAHVELAERMRKRDPGSAPSLGDRVPYVIISAAKGVAAYMKSEDPLFVLEHSLPIDTQYYLEQQLAKPLLRIFEPILGEGRAEAVLLRGDHTRCKTVLTGKVGGLLAFAKRRNCCIGCRTVLSHQGAVCEFCQPRESELYQKEVSHLNALEERFSRLWTQCQRCQGSLHEDVICTSRDCPIFYMRKKVRKDLEDQEQLLRRFGPPGPEAW [POLD1]”, for which the melting temperature in series [1] (cell cycle stage: G1/S) worked out at 48.3 °C; in series [1] (cell cycle stage: mitosis) it was 49.1 °C. Also, in series [2], the “solubility in G1/S (log2)” value was -0.0376. The results for the thermal stability score in series [3] (setting [5]) and in series [3] (cell cycle stage: mitosis) were 5.56 and 6.68, respectively. Moreover, the “solubility change mitosis (log2)” value in series [4] was -0.101.

For “MATATPVPPRMGSRAGGPTTPLSPTRLSRLQEKEELRELNDRLAVYIDKVRSLETENSALQLQVTEREEVRGRELTGLKALYETELADARRALDDTARERAKLQIELGKCKAEHDQLLLNYAKKESDLNGAQIKLREYEAALNSKDAALATALGDKKSLEGDLEDLKDQIAQLEASLAAAKKQLADETLLKVDLENRCQSLTEDLEFRKSMYEEEINETRRKHETRLVEVDSGRQIEYEYKLAQALHEMREQHDAQVRLYKEELEQTYHAKLENARLSSEMNTSTVNSAREELMESRMRIESLSSQLSNLQKESRACLERIQELEDLLAKEKDNSRRMLTDKEREMAEIRDQMQQQLNDYEQLLDVKLALDMEISAYRKLLEGEEERLKLSPSPSSRVTVSRASSSRSVRTTRGKRKRVDVEESEASSSVSISHSASATGNVCIEEIDVDGKFIRLKNTSEQDQPMGGWEMIRKIGDTSVSYKYTSRYVLKAGQTVTIWAANAGVTASPPTDLIWKNQNSWGTGEDVKVILKNSQGEEVAQRSTVFKTTIPEEEEEEEEAAGVVVEEELFHQQGTPRASNRSCAIM [LMNB1]”, the melting temperature in series [1] (cell cycle stage: G1/S) worked out at 51.1 °C; in series [1] (cell cycle stage: mitosis), 50.1 °C. Also, in series [2], the “solubility in G1/S (log2)” value was -1.97. Further, the thermal stability score was -12 in series [3] (setting [5]) and -7.18 in series [3] (cell cycle stage: mitosis). Also, in series [4], the “solubility change mitosis (log2)” value stood at 1.92.

Take “MSKRHRLDLGEDYPSGKKRAGTDGKDRDRDRDREDRSKDRDRERDRGDREREREKEKEKELRASTNAMLISAGLPPLKASHSAHSTHSAHSTHSTHSAHSTHAGHAGHTSLPQCINPFTNLPHTPRYYDILKKRLQLPVWEYKDRFTDILVRHQSFVLVGETGSGKTTQIPQWCVEYMRSLPGPKRGVACTQPRRVAAMSVAQRVADEMDVMLGQEVGYSIRFEDCSSAKTILKYMTDGMLLREAMNDPLLERYGVIILDEAHERTLATDILMGVLKEVVRQRSDLKVIVMSATLDAGKFQIYFDNCPLLTIPGRTHPVEIFYTPEPERDYLEAAIRTVIQIHMCEEEEGDLLLFLTGQEEIDEACKRIKREVDDLGPEVGDIKIIPLYSTLPPQQQQRIFEPPPPKKQNGAIGRKVVVSTNIAETSLTIDGVVFVIDPGFAKQKVYNPRIRVESLLVTAISKASAQQRAGRAGRTRPGKCFRLYTEKAYKTEMQDNTYPEILRSNLGSVVLQLKKLGIDDLVHFDFMDPPAPETLMRALELLNYLAALNDDGDLTELGSMMAEFPLDPQLAKMVIASCDYNCSNEVLSITAMLSVPQCFVRPTEAKKAADEAKMRFAHIDGDHLTLLNVYHAFKQNHESVQWCYDNFINYRSLMSADNVRQQLSRIMDRFNLPRRSTDFTSRDYYINIRKALVTGYFMQVAHLERTGHYLTVKDNQVVQLHPSTVLDHKPEWVLYNEFVLTTKNYIRTCTDIKPEWLVKIAPQYYDMSNFPQCEAKRQLDRIIAKLQSKEYSQY [DHX15]”: the results for the melting temperature in series [1] (cell cycle stage: G1/S) and in series [1] (cell cycle stage: mitosis) were 53.9 °C and 53.7 °C, respectively. Also, the “solubility in G1/S (log2)” value in series [2] was -0.42. Also, the thermal stability score in series [3] (setting [5]) was found to be 0.104; in series [3] (cell cycle stage: mitosis), 1.61. In addition, in series [4], the “solubility change mitosis (log2)” value was found to be 0.272.

Turning to “MNHSERFVFIAEWYDPNASLLRRYELLFYPGDGSVEMHDVKNHRTFLKRTKYDNLHLEDLFIGNKVNVFSRQLVLIDYGDQYTARQLGSRKEKTLALIKPDAISKAGEIIEIINKAGFTITKLKMMMLSRKEALDFHVDHQSRPFFNELIQFITTGPIIAMEILRDDAICEWKRLLGPANSGVARTDASESIRALFGTDGIRNAAHGPDSFASAAREMELFFPSSGGCGPANTAKFTNCTCCIVKPHAVSEGLLGKILMAIRDAGFEISAMQMFNMDRVNVEEFYEVYKGVVTEYHDMVTEMYSGPCVAMEIQQNNATKTFREFCGPADPEIARHLRPGTLRAIFGKTKIQNAVHCTDLPEDGLLEVQYFFKILDN [NME7]”, the melting temperature in series [1] (cell cycle stage: G1/S) was found to be 48.9 °C; in series [1] (cell cycle stage: mitosis), 48.8 °C. In series [2], the “solubility in G1/S (log2)” value is -0.32. The thermal stability score amounted to 0.587 in series [3] (setting [5]) and 0.668 in series [3] (cell cycle stage: mitosis). Besides, the “solubility change mitosis (log2)” value in series [4] worked out at 0.0736.

As to “MTDLVAVWDVALSDGVHKIEFEHGTTSGKRVVYVDGKEEIRKEWMFKLVGKETFYVGAAKTKATINIDAISGFAYEYTLEINGKSLKKYMEDRSKTTNTWVLHMDGENFRIVLEKDAMDVWCNGKKLETAGEFVDDGTETHFSIGNHDCYIKAVSSGKRKEGIIHTLIVDNREIPEIAS [FAIM]”, the results for the melting temperature in series [1] (cell cycle stage: G1/S) and in series [1] (cell cycle stage: mitosis) were 50.8 °C and 49.1 °C, respectively. The “solubility in G1/S (log2)” value in series [2] is -0.00968. Moreover, the thermal stability score in series [3] (setting [5]) amounted to 0.651; in series [3] (cell cycle stage: mitosis), 1.16. Besides, the “solubility change mitosis (log2)” value in series [4] is -0.25.

The values are drawn from the supplement of paper PMC5998384.
